Assay results reported in US20230272390A1, “COMPOSITIONS AND METHODS FOR HEMOGLOBIN PRODUCTION” (THE CHILDREN'S HOSPITAL OF PHILADELPHIA, priority 2020, published 2023).

Legend:
[1] = system: motifs from the CHD4 promoter and enhancer sites; experiment: EMSA with COS-7 nuclear extracts and radiolabeled probes; assay type: binding, human; settings: COS nuclear extracts, FLAG-tagged constructs, radiolabeled CHD4 motif probes
Procedure: Nuclear extracts were prepared from COS-7 cells transiently transfected with ZNF410 full-length and ZNF410 ZF1-5 plasmids. FuGENE® 6 (Promega) was used to transfect 5 μg of vector into 100 mm plates of COS-7 cells. A pcDNA3 empty vector was used as control. Cells were harvested 48 hours after transfection and nuclear extracts prepared (Andrews, et al. (1991) Nucleic Acids Res., 19:2499).
EMSAs were performed (Crossley, et al. (1996) Mol. Cell Biol., 16:1695-1705). The sense oligonucleotide was labelled with [γ-^32P]-adenosine triphosphate (Perkin Elmer) and boiled at 100° C. for 1 minute before addition of the antisense oligonucleotide and annealing of probe via slow cooling from 100° C. to room temperature. Probes were purified using Quick Spin Columns for radio-labelled DNA Purification (Roche). Nuclear extracts were harvested from COS-7 cells and samples and loaded on a 6% native polyacrylamide gel in TBE buffer (45 mM Tris, 45 mM boric acid, 1 mM EDTA). A ‘COS empty’ control lane was included to show binding of any background endogenous protein to the probe. […] Gels were run at 250 V for 1 hour, 45 minutes at 4° C. then dried under vacuum. […]
ZNF410 contains five tandem C2H2-type zinc fingers (ZFs) potentially involved in DNA binding (FIG. 5A). […] Direct DNA binding by full length (FL) ZNF410 to sequences found at the CHD4 gene was assessed by electrophoretic mobility shift assays (EMSAs). […]

[2] = molecular target: oligo containing the consensus motif; experiment: Fluorescence polarization DNA binding assay, consensus oligo; design: species or system human; settings: purified GST fusion protein, 17-bp oligo containing the consensus motif, read-out: dissociation constant (KD)
Procedure: The fragment of Human ZNF410 (NP_001229855.1) comprising of five zinc finger domains ZF1-5 (residues 217-366) was cloned into pGEX-6P-1 vector with a GST fusion tag (pXC2180). The plasmid was transformed into Escherichia coli strain BL21-Codon-plus(DE3)-RIL (Stratagene). Bacteria was grown in LB broth in a shaker at 37° C. until reaching the log phase (A600 nm between 0.4 and 0.5), the shaker temperature was then set to 16° C. and 25 μM ZnCl2 was added to the cell culture. When the shaker temperature reached 16° C. and A600 nm reached ˜0.8, the protein expression was induced by the addition of 0.2 mM isopropyl-3-D-thiogalactopyranoside with subsequent growth for 20 hours at 16° C. […]
Fluorescence polarization (FP) method was used to measure the binding affinity using a Synergy™ 4 Microplate Reader (BioTek). […]
To further gain insight into the molecular basis of how the ZNF410 tandem ZF domain recognizes its targeting DNA sequence, crystallization of the ZNF410-DNA complex was performed. The binding affinity of the ZNF410 ZF domain (ZF1-5) with the consensus motif was quantified by fluorescence polarization using purified GST fusion protein (Patel, et al. (2016) Methods Enzymol., 573:387-401). […]

B1: ZF1-5: fragment of human ZNF410 comprising five zinc finger domains ZF1-5 (residues 217-366); dominant-negative when overexpressed (protein)
chain: KKLKCTVEGCDRTFVWPAHFKYHLKTHRNDRSFICPAEGCGKSFYVLQRLKVHMRTHNGEKPFMCHESGCGKQFTTAGNLKNHRRIHTGEKPFLCEAQGCGRSFAEYSSLRKHLVVHSGEKPHQCQVCGKTFSQSGSRNVHMRKHHLQLG
modifications: left off: small tags and cut ends
notes: fragment of human ZNF410 comprising five zinc finger domains ZF1-5 (residues 217-366); dominant-negative when overexpressed
Question: Which results are given for B1?
Answer: DNA binding in EMSA [1]: strong DNA binding; Kd [2]: 22 nM
